# PMC7352350, “Molecular Interactions Stabilizing the Promatrix Metalloprotease-9·Serglycin Heteromer” (International Journal of Molecular Sciences, 2020)
# B1: HPX peptide 56 (peptide, UniProt P14780 631-650, looked up)
# peptide: RLWRFDVKAQMVDPRSASEV
# notes: MMP-9 HPX domain (F521-D707), spot 56 of the 20-mer walk with two-residue shift; source: synthetic peptide on a cellulose membrane
# B2: FnII peptide 17 (peptide, UniProt P14780 257-276, looked up)
# peptide: STTANYDTDDRFGFCPSERL
# notes: MMP-9 FnII module (A225-D390), spot 17 of the 20-mer walk with two-residue shift; source: synthetic peptide on a cellulose membrane
# B3: FnII peptide 35 (peptide, UniProt P14780 293-312, looked up)
# peptide: IFQGQSYSACTTDGRSDGYR
# notes: MMP-9 FnII module (A225-D390), spot 35 of the 20-mer walk with two-residue shift; source: synthetic peptide on a cellulose membrane
# B4: FnII peptide 13 (peptide, UniProt P14780 249-268, looked up)
# peptide: RSDGLPWCSTTANYDTDDRF
# notes: MMP-9 FnII module (A225-D390), spot 13 of the 20-mer walk with two-residue shift; source: synthetic peptide on a cellulose membrane
# B5: SG peptide 48 (peptide, UniProt P10124 122-141, looked up)
# peptide: LVDESDAFHDNLRSLDRNLP
# notes: serglycin core protein, spot 48 of the 20-mer walk with two-residue shift; numbers count on: the mature protein (1-131); source: synthetic peptide on a cellulose membrane
# B6: SG peptide 6 (peptide, UniProt P10124 38-57, looked up)
# peptide: VRCNPDSNSANCLEEKGPMF
# notes: serglycin core protein, spot 6 of the 20-mer walk with two-residue shift; numbers count on: the mature protein (1-131); source: synthetic peptide on a cellulose membrane
# B7: SG peptide 15 (peptide, UniProt P10124 56-75, looked up)
# peptide: MFELLPGESNKIPRLRTDLF
# notes: serglycin core protein, spot 15 of the 20-mer walk with two-residue shift; numbers count on: the mature protein (1-131); source: synthetic peptide on a cellulose membrane
# B8: SG peptide 47 (peptide, UniProt P10124 120-139, looked up)
# peptide: YQLVDESDAFHDNLRSLDRN
# notes: serglycin core protein, spot 47 of the 20-mer walk with two-residue shift; numbers count on: the mature protein (1-131); source: synthetic peptide on a cellulose membrane
# B9: SG peptide 14 (peptide, UniProt P10124 54-73, looked up)
# peptide: GPMFELLPGESNKIPRLRTD
# notes: serglycin core protein, spot 14 of the 20-mer walk with two-residue shift; numbers count on: the mature protein (1-131); source: synthetic peptide on a cellulose membrane
# B10: SG peptide 22 (peptide, UniProt P10124 70-89, looked up)
# peptide: LRTDLFPKTRIQDLNRIFPL
# notes: serglycin core protein, spot 22 of the 20-mer walk with two-residue shift; numbers count on: the mature protein (1-131); source: synthetic peptide on a cellulose membrane
# B11: SG peptide 21 (peptide, UniProt P10124 68-87, looked up)
# peptide: PRLRTDLFPKTRIQDLNRIF
# notes: serglycin core protein, spot 21 of the 20-mer walk with two-residue shift; numbers count on: the mature protein (1-131); source: synthetic peptide on a cellulose membrane
# B12: SG peptide 25 (peptide, UniProt P10124 76-95, looked up)
# peptide: PKTRIQDLNRIFPLSEDYSG
# notes: serglycin core protein, spot 25 of the 20-mer walk with two-residue shift; numbers count on: the mature protein (1-131); source: synthetic peptide on a cellulose membrane
# B13: SG peptide 27 (peptide, UniProt P10124 80-99, looked up)
# peptide: IQDLNRIFPLSEDYSGSGFG
# notes: serglycin core protein, spot 27 of the 20-mer walk with two-residue shift; numbers count on: the mature protein (1-131); source: synthetic peptide on a cellulose membrane
# B14: SG peptide 26 (peptide, UniProt P10124 78-97, looked up)
# peptide: TRIQDLNRIFPLSEDYSGSG
# notes: serglycin core protein, spot 26 of the 20-mer walk with two-residue shift; numbers count on: the mature protein (1-131); source: synthetic peptide on a cellulose membrane
# B15: SG peptide 24 (peptide, UniProt P10124 74-93, looked up)
# peptide: LFPKTRIQDLNRIFPLSEDY
# notes: serglycin core protein, spot 24 of the 20-mer walk with two-residue shift; numbers count on: the mature protein (1-131); source: synthetic peptide on a cellulose membrane
# B16: SG peptide 23 (peptide, UniProt P10124 72-91, looked up)
# peptide: TDLFPKTRIQDLNRIFPLSE
# notes: serglycin core protein, spot 23 of the 20-mer walk with two-residue shift; numbers count on: the mature protein (1-131); source: synthetic peptide on a cellulose membrane
# B17: SG peptide 50 (peptide, UniProt P10124 126-145, looked up)
# peptide: SDAFHDNLRSLDRNLPSDSQ
# notes: serglycin core protein, spot 50 of the 20-mer walk with two-residue shift; numbers count on: the mature protein (1-131); source: synthetic peptide on a cellulose membrane
# B18: SG peptide 51 (peptide, UniProt P10124 128-147, looked up)
# peptide: AFHDNLRSLDRNLPSDSQDL
# notes: serglycin core protein, spot 51 of the 20-mer walk with two-residue shift; numbers count on: the mature protein (1-131); source: synthetic peptide on a cellulose membrane
# B19: SG peptide 53 (peptide, UniProt P10124 132-151, looked up)
# peptide: NLRSLDRNLPSDSQDLGQHG
# notes: serglycin core protein, spot 53 of the 20-mer walk with two-residue shift; numbers count on: the mature protein (1-131); source: synthetic peptide on a cellulose membrane
# B20: SG peptide 54 (peptide, UniProt P10124 134-153, looked up)
# peptide: RSLDRNLPSDSQDLGQHGLE
# notes: serglycin core protein, spot 54 of the 20-mer walk with two-residue shift; numbers count on: the mature protein (1-131); source: synthetic peptide on a cellulose membrane
# B21: SG peptide 52 (peptide, UniProt P10124 130-149, looked up)
# peptide: HDNLRSLDRNLPSDSQDLGQ
# notes: serglycin core protein, spot 52 of the 20-mer walk with two-residue shift; numbers count on: the mature protein (1-131); source: synthetic peptide on a cellulose membrane
# B22: HPX peptide 69 with F673 mutated (peptide, UniProt P14780 657-676, looked up)
# peptide: VPLDTHDVFQYREKAYGCQD
# notes: MMP-9 HPX domain, mutated 20-mer of spot 69; source: synthetic peptide on a cellulose membrane
# B23: HPX peptide 41 with D609 mutated (peptide, UniProt P14780 601-620, looked up)
# peptide: LDKLGLGAAVAQVTGALRSG
# notes: MMP-9 HPX domain, mutated 20-mer of spot 41; source: synthetic peptide on a cellulose membrane
# B24: HPX peptide 69 with Y672 mutated (peptide, UniProt P14780 657-676, looked up)
# peptide: VPLDTHDVFQYREKAAFCQD
# notes: as for B22
# Target: T1, recombinant human His-tagged serglycin (human, UniProt P10124 28-158)
# T1 construct: serglycin core protein, human, the tag stands instead of the signal peptide; no GAG chains; numbers count on: the mature protein (1-131); also called Ht-SG; SG core protein; source: bought: ProSpec (produced in Escherichia coli)
# T1 sequence (looked up): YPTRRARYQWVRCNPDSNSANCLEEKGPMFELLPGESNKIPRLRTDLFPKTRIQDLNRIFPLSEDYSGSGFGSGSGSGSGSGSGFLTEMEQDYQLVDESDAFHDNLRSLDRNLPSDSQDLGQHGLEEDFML
# Assay: peptide or protein array; 20-mer walks of the MMP-9 FnII module and HPX domain on cellulose, two-residue shift; 10 uL of 1 ng/uL Ht-SG in 10 mL blocking buffer, 1-4 h, room temperature; antibodies against SG
# Details: both partners purified
row,Binder,binding result
1,B1,binds
2,B2,binds
3,B3,binds
4,B4,binds

# Target: T2, recombinant full-length proMMP-9 (human, UniProt P14780 20-707)
# T2 construct: matrix metalloprotease-9 proenzyme, human, full-length; pre domain cleaved off, the mature proenzyme is 20-707; also called rpMMP-9; source: Sf9, baculovirus, purified (gelatin-Sepharose)
# Assay: peptide or protein array; 20-mer walk of the SG core protein on cellulose, two-residue shift; 8.8 ul of 11.2 ug/mL proMMP-9 in 10 mL blocking buffer, 1-4 h, room temperature; antibody against MMP-9
# Details: both partners purified
row,Binder,binding result
1,B5,binds
2,B6,binds
3,B7,binds
4,B8,binds
5,B9,binds
6,B10,binds
7,B11,binds
8,B12,binds
9,B13,binds
10,B14,binds
11,B15,binds
12,B16,binds

# Target: T3, proMMP-9 purified from THP-1 cells (human (endogenous in THP-1), UniProt P14780 20-707)
# T3 construct: matrix metalloprotease-9 proenzyme, human; pre domain cleaved off, the mature proenzyme is 20-707; the preparation holds a small amount of TIMP-1; monomer and reduction-sensitive homomultimer; also called pMMP-9; promatrix metalloprotease-9; source: purified from conditioned medium of PMA-stimulated THP-1 cells (Q-Sepharose pass-through, gelatin-Sepharose)
# Assay: as above
# Details: both partners purified
# Target sequence in this assay (P14780 20-707): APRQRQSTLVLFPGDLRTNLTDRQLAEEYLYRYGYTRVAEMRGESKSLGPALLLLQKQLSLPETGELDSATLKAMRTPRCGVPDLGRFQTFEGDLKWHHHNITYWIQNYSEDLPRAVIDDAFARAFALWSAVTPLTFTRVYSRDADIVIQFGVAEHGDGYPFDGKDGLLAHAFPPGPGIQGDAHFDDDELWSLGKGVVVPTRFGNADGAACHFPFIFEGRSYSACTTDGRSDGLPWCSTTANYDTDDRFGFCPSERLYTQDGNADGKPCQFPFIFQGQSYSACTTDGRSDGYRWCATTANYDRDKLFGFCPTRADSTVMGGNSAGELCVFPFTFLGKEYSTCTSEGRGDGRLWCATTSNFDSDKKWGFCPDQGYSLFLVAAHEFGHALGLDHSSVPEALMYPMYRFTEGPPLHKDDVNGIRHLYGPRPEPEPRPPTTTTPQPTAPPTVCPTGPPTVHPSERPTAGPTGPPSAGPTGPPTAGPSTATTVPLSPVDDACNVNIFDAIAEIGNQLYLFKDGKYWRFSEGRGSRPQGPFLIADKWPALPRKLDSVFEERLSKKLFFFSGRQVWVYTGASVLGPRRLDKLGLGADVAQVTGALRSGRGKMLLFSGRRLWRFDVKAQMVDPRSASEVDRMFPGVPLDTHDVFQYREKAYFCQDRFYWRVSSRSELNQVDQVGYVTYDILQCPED
row,Binder,binding result
1,B5,binds
2,B6,binds
3,B7,binds
4,B8,binds
5,B9,binds
6,B10,binds
7,B11,binds
8,B12,binds
9,B13,binds
10,B14,binds
11,B15,binds
12,B16,binds

# Target: T4, recombinant proMMP-9 lacking the HPX domain (human, UniProt P14780 20-515)
# T4 construct: MMP-9 proenzyme, human; stop codon behind the codon for A515; the mature proenzyme starts at 20; also called rpMMP-9ΔHPX; proMMP-9ΔHPX; source: Sf9, baculovirus, purified (gelatin-Sepharose)
# Assay: as above
# Details: both partners purified
# T4 sequence (P14780 20-515): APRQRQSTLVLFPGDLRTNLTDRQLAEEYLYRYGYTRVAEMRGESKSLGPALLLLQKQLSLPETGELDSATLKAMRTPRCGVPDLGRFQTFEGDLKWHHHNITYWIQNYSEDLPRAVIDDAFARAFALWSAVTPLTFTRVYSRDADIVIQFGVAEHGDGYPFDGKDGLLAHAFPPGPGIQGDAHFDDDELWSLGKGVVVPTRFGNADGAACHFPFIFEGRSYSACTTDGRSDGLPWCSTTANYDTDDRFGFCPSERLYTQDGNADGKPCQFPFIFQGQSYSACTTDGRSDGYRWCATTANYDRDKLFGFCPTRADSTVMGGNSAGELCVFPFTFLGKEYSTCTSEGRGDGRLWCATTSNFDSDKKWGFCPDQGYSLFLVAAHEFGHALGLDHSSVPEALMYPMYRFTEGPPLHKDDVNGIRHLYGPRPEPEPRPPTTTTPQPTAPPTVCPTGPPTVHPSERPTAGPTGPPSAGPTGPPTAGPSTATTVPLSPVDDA
row,Binder,binding result
1,B5,binds
2,B6,binds
3,B7,binds
4,B8,binds
5,B9,binds
6,B10,binds
7,B12,binds
8,B13,binds
9,B14,binds
10,B15,binds
11,B16,binds

# Target: T3, proMMP-9 purified from THP-1 cells
# Assay: as above
# Details: both partners purified
# Remark: another data set of the same source
row,Binder,binding result
1,B17,binds
2,B18,binds
3,B19,binds
4,B20,binds
5,B21,binds

# Target: T1, recombinant human His-tagged serglycin
# Assay: peptide or protein array; mutated FnII and HPX 20-mer peptides on cellulose, incubated with Ht-SG; antibodies against SG
# Details: both partners purified
row,Binder,binding result
1,B22,binds
2,B23,binds
3,B24,binds
